Measured values taken from patent publication US20230075753A1.
Values joined by “and” are separate entries in the source; they are usually repeats but may differ in a detail not shown here. Equal entries are not always repeated.

Legend:
[1] = biological target: Active cyno KLK5 (cynomolgus monkey)
[2] = biological target: Active human KLK5 (human) (UniProt Q9Y337); experiment: cell-based or functional assay

IC50 (read off the curve) [1]: 0.7 nM
Hu KLK5 IC50, inhibition of protease activity (Boc-VPR-AMC) (not printed (M by Table 2)) [2]: 1.03e-10 and 7.44e-11
IC50 (M), inhibition of kallikrein protease activity (fluorogenic peptide substrate) [2]: 1.03e-10 M
Substance: Human LEKTI D5 rabbit Fc fusion protein
